These results are taken from article PMC4102767.

The target in assay [1] is Dpb11 (UniProt P47027). Briefly: anti-Flag co-IP, Western blot. The conditions noted are these: reference: wild type (undamaged or MMS); sites S486.
Assay [2] has as its target Dpb11 (UniProt P47027). Briefly: Flag purification, SILAC quantitative MS. The conditions noted are these: reference: wild type; sites S486.

Regarding “Slx4 (from UniProt Q12098) S486A (undamaged or MMS)”, the “binding against the reference” value with Dpb11 [1] was “weaker”.
Turning to Slx4 (from UniProt Q12098) S486A, the fold change entry in the assay with Dpb11 [2] was “weaker”.
